Data published in patent US20130039923A1 (Novo Nordisk, published 2013).

B4: recombinant human interleukin-20 (ligand)
chain: LKTLNLGSCVIATNLQEIRNGFSEIRGSVQAKDGNIDIRILRRTESLQDTKPANRCCLLRHLLRLYLDRVFKNYQTPDHYTLRKISSLANSFLTIKKDLRLCHAHMTCHCGEEAMKKYSQILSHFEKLEPQAAVVKALGELDILLQWMEETE

Assays:
[1] = target: cynomolgus IL20R1/IL20R2 receptor complex (cynomolgus monkey); assay: cell-based or functional assay
[2] = target: cynomolgus IL22R1/IL20R2 receptor complex (cynomolgus monkey); assay: cell-based or functional assay
[3] = target: B4; assay: cell-based or functional assay
[4] = target: T1, human IL20R1/IL20R2 receptor complex (human, UniProt Q9UHF4 30-553; Q6UXL0 30-311); assay: cell-based or functional assay
T1 sequence (looked up) 1: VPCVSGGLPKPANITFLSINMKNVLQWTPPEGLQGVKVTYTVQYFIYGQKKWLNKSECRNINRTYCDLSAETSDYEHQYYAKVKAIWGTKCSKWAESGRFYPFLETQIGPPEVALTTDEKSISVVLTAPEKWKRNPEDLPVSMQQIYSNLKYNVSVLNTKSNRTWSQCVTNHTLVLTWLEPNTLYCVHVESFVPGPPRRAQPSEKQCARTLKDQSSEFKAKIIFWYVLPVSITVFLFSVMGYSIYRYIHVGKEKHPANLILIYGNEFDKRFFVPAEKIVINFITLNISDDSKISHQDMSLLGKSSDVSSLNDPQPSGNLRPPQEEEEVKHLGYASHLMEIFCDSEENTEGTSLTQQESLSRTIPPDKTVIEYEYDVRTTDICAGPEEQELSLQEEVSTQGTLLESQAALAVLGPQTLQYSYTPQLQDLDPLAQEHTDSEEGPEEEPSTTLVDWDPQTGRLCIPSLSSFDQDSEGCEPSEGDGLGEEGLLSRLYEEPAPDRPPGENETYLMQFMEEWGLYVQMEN
T1 sequence (looked up) 2: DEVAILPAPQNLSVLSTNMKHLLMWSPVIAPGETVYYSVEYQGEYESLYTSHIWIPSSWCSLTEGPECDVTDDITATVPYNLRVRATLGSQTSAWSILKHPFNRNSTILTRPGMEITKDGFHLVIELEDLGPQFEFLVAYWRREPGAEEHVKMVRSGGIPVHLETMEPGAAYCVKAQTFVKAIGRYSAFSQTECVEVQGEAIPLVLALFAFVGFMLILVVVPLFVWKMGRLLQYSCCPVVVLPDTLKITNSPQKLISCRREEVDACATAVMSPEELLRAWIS

[5] = target: T2, human IL22R1/IL20R2 receptor complex (human, UniProt Q8N6P7 16-574; Q6UXL0 30-311); assay: cell-based or functional assay
T2 sequence (looked up) 1: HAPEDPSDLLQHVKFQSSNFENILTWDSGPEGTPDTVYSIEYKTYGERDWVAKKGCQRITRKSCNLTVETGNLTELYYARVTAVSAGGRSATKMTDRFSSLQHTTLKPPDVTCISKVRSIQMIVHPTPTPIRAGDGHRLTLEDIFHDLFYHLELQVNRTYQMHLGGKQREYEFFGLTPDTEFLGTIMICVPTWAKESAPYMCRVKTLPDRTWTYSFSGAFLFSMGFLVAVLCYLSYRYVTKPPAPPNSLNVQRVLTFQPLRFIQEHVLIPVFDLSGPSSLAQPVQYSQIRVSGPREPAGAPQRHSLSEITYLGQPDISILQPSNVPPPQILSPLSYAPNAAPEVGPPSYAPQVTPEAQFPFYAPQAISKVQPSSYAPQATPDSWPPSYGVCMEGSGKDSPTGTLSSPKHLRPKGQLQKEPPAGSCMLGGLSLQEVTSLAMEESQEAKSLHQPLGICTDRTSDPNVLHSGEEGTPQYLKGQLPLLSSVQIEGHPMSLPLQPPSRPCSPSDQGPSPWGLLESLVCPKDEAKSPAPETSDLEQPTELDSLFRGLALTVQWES
T2 sequence (looked up) 2: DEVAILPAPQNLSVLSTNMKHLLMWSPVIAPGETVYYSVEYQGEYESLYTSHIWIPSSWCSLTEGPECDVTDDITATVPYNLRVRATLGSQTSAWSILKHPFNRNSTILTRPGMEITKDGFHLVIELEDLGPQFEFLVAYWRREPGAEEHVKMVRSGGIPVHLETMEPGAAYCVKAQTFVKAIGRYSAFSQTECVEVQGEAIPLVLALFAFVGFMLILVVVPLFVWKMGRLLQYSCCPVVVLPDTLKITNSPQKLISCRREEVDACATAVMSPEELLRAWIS

[6] = target: T1, human IL20R1/IL20R2 receptor complex; assay: inferred from BaF-3(hIL20R) proliferation; IL19 reverted the 15D2 block
[7] = target: B4; assay: SPR (Biacore 3000/T100), antibody amine-coupled on CM5, recombinant hIL20 injected 3.125-100 nM, 1:1 Langmuir, 25 C; antibody from HEK293
Protocol: (§1) Affinity studies were performed using a direct binding procedure, with the monoclonal antibody covalently coupled via free amine groups to the carboxymethylated dextrane membrane (CM5) on the sensor chip surface. […] The kinetic parameters for the interaction could be calculated using a 1:1 interaction Langmuir fitting model.
(§2) The purified monoclonal antibodies were immobilized in individual flow cells on a CM5 type sensor chip. Immobilizations were performed using a standard amine coupling procedure, aiming for an immobilization level of 1000 Resonance Units (RU). The antibodies were diluted to 5 μg/ml in 10 mM NaAc pH 5.0. […] Association (injection) was 3 min., followed by a 30 min. dissociation (wash) period. Flow rate was 30 μl/min. Experiments were performed at 25° C. Regeneration of the surface following each cycle, was accomplished by injection of 30 sec. pulse of 10 mM Glycin-HCl pH 1.8, at a 30 ul/min flow rate. Detection in all flow cells simultaneously. Flow cell No. 1 contained no immobilized antibody, and was used for subtraction of background and bulk. […] Data was inspected for mass-transport limitations prior to calculation of the kinetic parameters. Experiments were performed on Biacore 3000 and T100 instruments. Data was evaluated using Biaeval 4.1 and Biacore T100 evaluation software.

[8] = target: B4; assay: SPR (Biacore 3000/T100), antibody amine-coupled on CM5, recombinant hIL20 injected 3.125-100 nM, 1:1 Langmuir, 25 C; antibody from CHO
Protocol: as §1, §2

cynomolgus IL20 (from UniProt Q9NYY1 25-176) (ligand)
fold induction of luciferase reporter in transfected BHK cells, 1 nM cynoIL20 [1]: 2 fold | fold induction of luciferase reporter in transfected BHK cells, 1 nM cynoIL20 [2]: 3 to 4 fold

B1: human anti-IL20 antibody 2F6 (antibody, human IgG4, V domains shown)
VH: QITLKESGPTLVKPTQTLTLTCTFSGFSFSTNGVGVGWIRQPPGKALEWLALIYWNDDKRYSPSLKSRLTITKDTSKNQVVLTMTNMDPLDTATYYCAHSPFIMVRGVIITFFDFWGQGTLVT
VL: VIWMTQSPSLLSASTGDRVTISCRMSQGISSYLAWYQQKPGKAPELLIYAASTLQSGVPSRFSGSGSGTDFTLTISCLQSEDFATYYCQQYYSFPLTFGGGTKVEIKR
IC50, inhibition of IL20 induced proliferation of BaF-3(hIL20R) at 1e-9M hIL20 (assay 1) [3]: 15400 nM | IC50, inhibition of IL20 induced proliferation of BaF-3(hIL20R) at 1e-9M hIL20 (assay 2) [3]: 13900 nM | IC50, inhibition of IL20 induced proliferation of BaF-3(hIL20R) at 1e-9M hIL20 (assay 3) [3]: 1670 nM | IC50, inhibition of IL20 induced proliferation of BaF-3(hIL20R) at 1e-9M hIL20 (assay 4) [3]: 360 nM | IC50, inhibition of IL20 induced proliferation of BaF-3(hIL20R) at 1e-9M hIL20 (assay 5) [3]: 1800 nM | IC50, inhibition of IL20 induced proliferation of BaF-3(hIL20R) at 1e-9M hIL20 (assay 6) [3]: 320 nM | IC50, inhibition of IL20 induced proliferation of BaF-3(hIL20R) at 1e-9M hIL20 (assay 7) [3]: 15400 nM

B2: F18 (LC: F56Type1; HC: F18) (antibody, human IgG4, V domains shown)
VH: QVQVVQSGAEVKKPGASVRVSCTASGYTFTDYAIHWVRQAPGQRLEWMGWINAGYGNTKYSQKFQGRVTITRDTSASTVYMELSSLRSEDTAVYYCAREGGALSWFGESQGFDYWGQGTLVT
VL: AIQLTQSPSSLSASVGDRVTITCRASQGISSALAWYQQKPGKAPKLLIYDASSLESGVPSRFSGSGSGTDFTLTISSLQPEDFATYYCQQFNSYPLTFGGGTKVEIKR
IC50, inhibition of IL20 induced proliferation of BaF-3(hIL20R) at 1e-9M hIL20 (assay 5) [3]: 50 nM

B3: human anti-IL20 antibody C11 (antibody, human IgG1, V domains shown)
VH: QVQLVQSGAEVKRPGASVKVSCKASGYTFTNDIIHWVRQAPGQRLEWMGWINAGYGNTQYSQNFQDRVSITRDTSASTAYMELISLRSEDTAVYYCAREPLWFGESSPHDYYGMDVWGQGTTVTVSS
VL: AIQLTQSPSSLSASVGDRVTITCRASQGISSALAWYQQKPGKAPKLLIYDASSLESGVPSRFSGSGSGTDFTLTISSLQPEDFATYYCQQFNSYPLTFGGGTKVEIKR
IC50, inhibition of IL20 induced proliferation of BaF-3(hIL20R) at 1e-9M hIL20 (assay 1) [3]: 260 nM | IC50, inhibition of IL20 induced proliferation of BaF-3(hIL20R) at 1e-9M hIL20 (assay 2) [3]: 2000 nM | IC50, inhibition of IL20 induced proliferation of BaF-3(hIL20R) at 1e-9M hIL20 (assay 3) [3]: 370 nM | IC50, inhibition of IL20 induced proliferation of BaF-3(hIL20R) at 1e-9M hIL20 (assay 7) [3]: 186 nM

B4
fold induction of luciferase reporter in transfected BHK cells, 1 nM hIL20 [4]: ~3 fold | fold induction of luciferase reporter in transfected BHK cells, 1 nM hIL20 [5]: ~3 fold

B5: F56 (LC: F56Type1; HC: F56) (antibody, human IgG4, V domains shown)
VH: QVQLVQSGAEVKKPGASVRVSCTASGYTFPNYAIHWVRQAPGQRLEWMGWINAGYGNTKYSQKFQGRVTITRDTSASTAYMELSSLRSEDTAVYYCAREGGVLLWFGESQGFDYWGQGTLVT
VL: AIQLTQSPSSLSASVGDRVTITCRASQGISSALAWYQQKPGKAPKLLIYDASSLESGVPSRFSGSGSGTDFTLTISSLQPEDFATYYCQQFNSYPLTFGGGTKVEIKR
IC50, inhibition of IL20 induced proliferation of BaF-3(hIL20R) at 1e-9M hIL20 (assay 4) [3]: 40 nM | IC50, inhibition of IL20 induced proliferation of BaF-3(hIL20R) at 1e-9M hIL20 (assay 5) [3]: 730 nM

B6: human IL19 (ligand)
chain: LRRCLISTDMHHIEESFQEIKRAIQAKDTFPNVTILSTLETLQIIKPLDVCCVTKNLLAFYVDRVFKDHQEPNPKILRKISSIANSFLYMQKTLRQCQEQRQCHCRQEATNATRVIHDNYDQLEVHAAAIKSLGELDVFLAWINKNHEVMFSA
notes: Bought from R&D systems; whole entry named; also called hIL19
binding result [6]: binds

B7: 15D2 with an S241P mutation (antibody, V domains shown)
VH: QVQLVQSGAEVKRPGASVKVSCKASGYTFTNDIIHWVRQAPGQRLEWMGWINAGYGNTQYSQNFQDRVSITRDTSASTAYMELISLRSEDTAVYYCAREPLWFGESSPHDYYGMDVWGQGTTVTVSS
VL: AIQLTQSPSSLSASVGDRVTITCRASQGISSALAWYQQKPGKAPKLLIYDASSLESGVPSRFSGSGSGTDFTLTISSLQPEDFATYYCQQFNSYPLTFGGGTKVEIKR
notes: IgG4 hinge mutation S241P (Kabat); Expressed in HEK293 or CHO cells (host named under assay); also called 15D2-S241P; not shown: human IgG4 heavy chain constant region
Kd [7]: 0.036 nM | koff [7]: 6.8e-05 s⁻¹ | kon [7]: 1.7e+06 M⁻¹ s⁻¹ | Kd [8]: 0.031 nM | koff [8]: 7.1e-05 s⁻¹ | kon [8]: 2.3e+06 M⁻¹ s⁻¹
